From article PMC4660254 come the findings set out here.

One may read the stoichiometry N as the number of molecules, sites or subunits per partner or assembly.

The assay concerns the target Mud C-terminal coiled-coil domain (Mud^CC) (Drosophila). Nature of the assay: SEC.

Substance “Mud C-terminal coiled-coil domain (Mud^CC) (domain or fragment)” gave a stoichiometry N of 3.
